{
  "source": "the nanobody polyreactivity screen of Harvey et al. (2022)",
  "data": [
    {"experiment": "yeast display, Sf9 membrane polyspecificity reagent, FACS + sequencing; frameworks hold sequencing errors", "method_in_brief": "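Genes from sorted yeast were amplified by colony PCR, read by MiSeq 2 × 250 sequencing and filtered on CDR length. These cells carried a synthetic nanobody library in Saccharomyces cerevisiae BJ5465 and were sorted by FACS into low and high (top ~1%) gates on anti-HA and streptavidin fluorescence. Polyreactivity is labelled according to the gate of origin.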", "values": [
      {"sequence": "QVQLVESGGGLVQAGGSLRLSCAASGFTFYRYAMGWYRQAPGKERELVAAISTSGGSTYYADSVKGRFTISRDNAKNTVYLQMNSLKPEDTAVYYCAAELLVYYWGYYYELLDYWGQGTQVSVSS", "polyreactivity (PSR sort gate)": "high polyreactivity"},
      {"sequence": "QVQLVESGGGLVQAGGSLRLSCAASGFTFYRYAMGWYRQAPGKERELVATISASGGSTYYADSVKGRFTISRDNAKNTVYLQMNSLKPEDTAVYYCAVRYKSWYGFNYWGQGTQVTVSS", "polyreactivity (PSR sort gate)": "high polyreactivity"},
      {"sequence": "QVQLVESGGGLVQAGGSLRLSCAASGFTFYRYAMGWYRQAPGKERELVAVISSSGGRTYYADSVKGRFTISRDNAKNTVYLQMNSLKPEDTAVYYCAAVGAVRREDYWGQGTQVTVSS", "polyreactivity (PSR sort gate)": "high polyreactivity"},
      {"sequence": "QVQLVESGGGLVQAGGSLRLSCAASGFTFYRYAMGWYRQAPGKERQLVAAISRRGGSTDYADSVKGRFTISRDNAKNTVYLQMNRLKPEDTAVYYCAASYSRGVGKLGYWGQGTQVTVSS", "polyreactivity (PSR sort gate)": "high polyreactivity"},
      {"sequence": "QVQLVESGGGLVQAGGSLRLSCAASGFTFYRYTMGWYRQAPGKERELVAAISSGDSTYYADSVKGRFTISRDNAKNTVYLQMNSLKPEDTAVYYCAARQYSRGAIVYYWGQGTQVTVSS", "polyreactivity (PSR sort gate)": "high polyreactivity"},
      {"sequence": "QVQLVESGGGLVQAGGSLRLSCAASGFTFYRYTMGWYRQAPGKERELVAVISSGGRTNYADSVKGRFTISRDNAKNTVYLQMNSLKPEDTAVYYCATRYPGYRDGYDYWGQGTQVSVSS", "polyreactivity (PSR sort gate)": "high polyreactivity"},
      {"sequence": "QVQLVESGGGLVQAGGSLRLSCAASGFTFYSNAMGWYRQAPGKERELVAAISGSGGRTYYADSVKGRFTISRDNAKNTVYLQMNSLKPEDTAVYYCAAKFTTGYYYGVPRDYWGQGTQVTVSS", "polyreactivity (PSR sort gate)": "high polyreactivity"},
      {"sequence": "QVQLVESGGGLVQAGGSLRLSCAASGFTFYSNAMGWYRQAPGKERELVATIRYRGGSTYADSVKGRFTISRDNAKNTVYLQMNSLKPEDTAVYYCAARKYRSFRQRTGDYWGQGTQVTVSS", "polyreactivity (PSR sort gate)": "high polyreactivity"},
      {"sequence": "QVQLVESGGGLVQAGGSLRLSCAASGFTFYSYALGWYIQAPGKERELVAAISRGGSTTYADSVKGRFTISRDNAKNTVYLQMNSLKPEDTAVYYCAARYRYRYTPYRYDYWGQGTQVTVSS", "polyreactivity (PSR sort gate)": "high polyreactivity"},
      {"sequence": "QVQLVESGGGLVQAGGSLRLSCAASGFTFYSYAMGWYRQAPGKEREFVAAISGSGTITFYADSVKGRFTISRDNAKNTVYLQMNSLKPEDTAVYYCNADKYYRWSSPRYDYWGQGTQVTVSS", "polyreactivity (PSR sort gate)": "low polyreactivity"},
      {"sequence": "QVQLVESGGGLVQAGGSLRLSCAASGFTFYSYAMGWYRQAPGKERELVAAISWSGTRTYYADSVKGRFTISRDNAKNTVYLQMNSLKPEDTAVFYCAARGYRYGYGYWGQGTQVTVSS", "polyreactivity (PSR sort gate)": "high polyreactivity"},
      {"sequence": "QVQLVESGGGLVQAGGSLRLSCAASGFTFYSYVMGWYRQAPGKERELVAAISWSGGRTNYADSVKGRFTISRDNAKNTVYLQMNSLKPEDTAVYYCNAPFRLRYRVDYWGQVTQVTVSS", "polyreactivity (PSR sort gate)": "high polyreactivity"},
      {"sequence": "QVQLVESGGGLVQAGGSLRLSCAASGFTFYTNAMGWYRQARGQERELVAAISSSGGRTYYADSVKGRFTISRDNAKNTVYLQMNSLKPEDTAVYYCNAYFTRSFSYIYWGQGTQVTVSS", "polyreactivity (PSR sort gate)": "high polyreactivity"},
      {"sequence": "QVQLVESGGGLVQAGGSLRLSCAASGFTFYTYAMGWYRQAPGKERELVATISGSGGDTNYADSVKGRFTISRDNEKNTVYLQMDSLKPEDTAVYYCAAEPDATTYSDPYDYWGQGTQVTVSS", "polyreactivity (PSR sort gate)": "low polyreactivity"},
      {"sequence": "QVQLVESGGGLVQAGGSLRLSCAASGFTFYTYTMGWYRQAPGKERELVAVISRSGGSTYYADSVKGLFTISRDNAKNTVYLQMNSLNPEDTAVYYCNAGYWRFIDSFDYWGQRTQVTVSS", "polyreactivity (PSR sort gate)": "high polyreactivity"},
      {"sequence": "QVQLVESGGGLVQAGGSLRLSCAASGFTFYVYTMGWYRQAPGKERELVASISGGRTYYADSVKGRFTISRDNAKNTVYLQMNSLKPEDTAVYYCAAVPYPSYYDTRYDYWGPGTQVTVSS", "polyreactivity (PSR sort gate)": "low polyreactivity"},
      {"sequence": "QVQLVESGGGLVQAGGSLRLSCAASGFTFYWYTMGGYRQAPGKDRELVAAISGSGGRTYYADSVKGRFTISRDNAKKTVYLQMNSLKPEDTAVYYCAARGRYAYPRYGYYPVNYWGQVTQVTVSS", "polyreactivity (PSR sort gate)": "high polyreactivity"},
      {"sequence": "QVQLVESGGGLVQAGGSLRLSCAASGFTFYYNAMGWYRQAPGKERELVAAIYSDGSTYYADSVKGRFTISRDNAKNTFYLQMNSLKAEDTAVYYCAVRKAYQYGFYYWGQGTQVTVSS", "polyreactivity (PSR sort gate)": "low polyreactivity"},
      {"sequence": "QVQLVESGGGLVQAGGSLRLSCAASGFTFYYNAMGWYRQAPGKERELVATISGSGGRTYYADSVKGRFTISRDNAKNTVYLQMNSLKPEDTAVYYCAARYVWSRYGYWGQGTQVTVSS", "polyreactivity (PSR sort gate)": "high polyreactivity"},
      {"sequence": "QVQLVESGGGLVQAGGSLRLSCAASGFTFYYYAMGWSRQAPGKERELVAAISQNGGRTYYADSVKGRFTISRDNAKNTVYLQMNSLKPEDTAVYYCAKASGYSSYGYWGQGTQVTVSS", "polyreactivity (PSR sort gate)": "high polyreactivity"},
      {"sequence": "QVQLVESGGGLVQAGGSLRLSCAASGFTFYYYAMGWYRQAPGKERELVAAISRGGGNTYYADSVKGRFTISRDNAKNTVYLQMNSLKPEDTAVYYCAARRPVYRIYGDRGRWYNYWGQGTQVTVSS", "polyreactivity (PSR sort gate)": "high polyreactivity"},
      {"sequence": "QVQLVESGGGLVQAGGSLRLSCAASGFTFYYYAMGWYRQAPGKERELVAAISSRGGNTYYADSVKGRFTISRDNAKNTVYLQMNSLKPEDTAVYYCASVPLKYDYWGQGTQVTVSS", "polyreactivity (PSR sort gate)": "high polyreactivity"},
      {"sequence": "QVQLVESGGGLVQAGGSLRLSCAASGFTFYYYAMGWYRQAPGKERELVAAITSGGSTYYADSVKGRFTISRDNAKNTVYLQMNSLKPEDTAVYYCNTVHYNLDYEYDYWGQGTQGTVSS", "polyreactivity (PSR sort gate)": "low polyreactivity"},
      {"sequence": "QVQLVESGGGLVQAGGSLRLSCAASGFTFYYYAMGWYRQAPGKERELVAAITSSGDSTFYADSVKGRFTISRDNAKNTVSLQMNSLKPEDTAVYYCAADRFQGRDDYWGQGTQGTVSS", "polyreactivity (PSR sort gate)": "high polyreactivity"},
      {"sequence": "QVQLVESGGGLVQAGGSLRLSCAASGFTFYYYAMGWYRQAPGKERELVATISSSGGSTHYADSVKGRFTISRDNAKNTVYLQMNSLKPEDTAVYYCAADSYWDQSHIRDYWGQGTQVTVSS", "polyreactivity (PSR sort gate)": "low polyreactivity"},
      {"sequence": "QVQLVESGGGLVQAGGSLRLSCAASGFTFYYYTMGWYIKAPGKERELVAAITRSGGRTYYADSVKGRFTISRDNAKNTVYLQMNSLKPEDTAVYYCAARTPFYNSYRRDYWGQGTQVTVSS", "polyreactivity (PSR sort gate)": "high polyreactivity"},
      {"sequence": "QVQLVESGGGLVQAGGSLRLSCAASGFTFYYYTMGWYRQAPGKERELVAVITLSDGSTNYADSVKGRFTISRDNAKNTVYLQMNSLKPEDTAVYYCDAKYVDYGYHGYDYWGQGTQVTVSS", "polyreactivity (PSR sort gate)": "low polyreactivity"},
      {"sequence": "QVQLVESGGGLVQAGGSLRLSCAASGFTFYYYTMGWYRQAPVKERELVAGITSRGGSTTYADSVKARFTISLDNAKNTVYLQMNSLKPEDTAVYYCNPLWAVHSGYDYLGQGTQVTVSS", "polyreactivity (PSR sort gate)": "high polyreactivity"},
      {"sequence": "QVQLVESGGGLVQAGGSLRLSCAASGFTIAKYAMGWYRQAPGKERELVAAISSSGGRTYYADSVKGRFTISRDIAKNTVYLQMNSLNPEDTAVYYCAADFSGPFDYWGQGTQVSVSS", "polyreactivity (PSR sort gate)": "high polyreactivity"},
      {"sequence": "QVQLVESGGGLVQAGGSLRLSCAASGFTIERYAMGWYRQAPGKERELVAVISTSGGSTYYADSVKGRFTISRDNAKNTVYLQMNSLKPEDTAVYYCAKDGSSRGDYHFGWGYYYWGQGSQVTVSS", "polyreactivity (PSR sort gate)": "low polyreactivity"},
      {"sequence": "QVQLVESGGGLVQAGGSLRLSCAASGFTIGDYAMGWYRQAPGKERELVAAITYSGGSTYYADSVKGRFTISRDNAKNTVYLQMNSLKPEDTAVYYCNADYASQSGYDYWGQGTQVTVSS", "polyreactivity (PSR sort gate)": "low polyreactivity"},
      {"sequence": "QVQLVESGGGLVQAGGSLRLSCAASGFTIGKNAMGWYRQAPGKERELVAAISLSGGRTYADSVKGRFTISRDNAKNTVYLQMNSLKPEDTAVYYCAANRYPKFYWGQGTQVTVSS", "polyreactivity (PSR sort gate)": "high polyreactivity"},
      {"sequence": "QVQLVESGGGLVQAGGSLRLSCAASGFTIRRYAMGWYRQAPGKERELVAAITTGGSTYYADSVKGRFTISRDNAKNTVYLQMNSLKPEDTAVYYCAALYPYKQYRLGYDSWGQGTQVTVSS", "polyreactivity (PSR sort gate)": "high polyreactivity"},
      {"sequence": "QVQLVESGGGLVQAGGSLRLSCAASGFTIRSYAMGWYRQAPGKERELVAGITWRSSSTYYADSVKGRFTISRDNAKNTVYLQMNSLKPEDTAVYYCAARAVYRFNYWGQGTQVTVSS", "polyreactivity (PSR sort gate)": "high polyreactivity"},
      {"sequence": "QVQLVESGGGLVQAGGSLRLSCAASGFTIRWYAMGWYRQAPGKERELVAAISSGGGSTYYADSVKGRFTISRDNAKNTVYLQMNSLKPEDTAVYYCNARIQYFEYRGYEYWGQGTQVTVSS", "polyreactivity (PSR sort gate)": "high polyreactivity"},
      {"sequence": "QVQLVESGGGLVQAGGSLRLSCAASGFTIRWYTMGWYRQAPWKERELVATINWSGGSTYYADSVKGRFTISRDNAKNTVYLQMNSLIPEDTAVYYCARRQSGTIKTRMDYWGQGTQVTVSS", "polyreactivity (PSR sort gate)": "high polyreactivity"},
      {"sequence": "QVQLVESGGGLVQAGGSLRLSCAASGFTISQYAMGWYRQAPGKERELVAAISASGGRTYYADSVKGRFTISRDNAKNTVYLQMNSLKPDDTAVYYCAAKLYVSGGRYWYDYWGQGTQVTVSS", "polyreactivity (PSR sort gate)": "high polyreactivity"},
      {"sequence": "QVQLVESGGGLVQAGGSLRLSCAASGFTITRYAMGWYRQAPGKERELVAAISKSGGSTFYADSVKGRFTISRDNAKNTVYLQMNSLKPEDTAVYYCAKVLRAKNSFDYWGQGTQVTVSS", "polyreactivity (PSR sort gate)": "high polyreactivity"},
      {"sequence": "QVQLVESGGGLVQAGGSLRLSCAASGFTITYNAMGWYRKAPGKEREFVAAITNNGSTYYADSVKGRFTISRDNAKNTVYLQMNSLKPEDTAVYFCAVDPGYYDEYNYWGQGTQVTVSS", "polyreactivity (PSR sort gate)": "low polyreactivity"},
      {"sequence": "QVQLVESGGGLVQAGGSLRLSCAASGFTLAGYAMGWYRQAPGKERELVAAITSSGGSTFYADSVKGRFTISRDNAKNTVYLQMNSLKPEDTAVYYCAAKWAVVSGYGYWGQGTQVTVSS", "polyreactivity (PSR sort gate)": "high polyreactivity"},
      {"sequence": "QVQLVESGGGLVQAGGSLRLSCAASGFTLARYAMGWYRQATGKERELVAAITKRGGSTYYADSVKGRFTISRDNAMNTVYLQMNSLKPEDTAVYYCATYKRSSHYDYWGQGTQVTVSS", "polyreactivity (PSR sort gate)": "high polyreactivity"}
    ]}
  ]
}
